First the molecules themselves.
B1: hu2H8v1 (antibody, V domains shown)
VH: QVQLVQSGAEVKKPGASVKVSCKASGYTFTNFWIHWVRQAPGQGLEWMGMIDPSDSYTKYNQKFKARVTMTRDTSTSTTYMELSSLRSEDTAVYYCARSGVAFPYWGQGTLVTVSS
VL: DIQMTQSPSSLSASVGDRVTITCKASQDVGRNVAWYQQKPGKAPKLLIYSASHRYSGVPSRFSGSGSGTDFTLTISSLQPEDFATYYCQQYNSYPYTFGQGTKVEIK
notes: humanized; also called hu2H8_HC1 + hu2H8_LC1
B2: hu2H8v3 (antibody, V domains shown)
VH: QVQLVQSGAEVKKPGASVKVSCKASGYTFTNFWIHWLRQAPGQGLEWMGMIDPSDSYTKYNQKFKARVTMTVDTSTSTTYMELSSLRSEDTAVYYCARSGVAFPYWGQGTLVTVSS
VL: DIQMTQSPSSLSASVGDRVTITCKASQDVGRNVAWYQQKPGKAPKLLIYSASHRYSGVPSRFSGSGSGTDFTLTISSLQPEDFATYYCQQYNSYPYTFGQGTKVEIK
notes: humanized; also called hu2H8_HC3 + hu2H8_LC1
B3: hu2H8v2 (antibody, V domains shown)
VH: QVQLVQSGAEVKKPGASVKVSCKASGYTFTNFWIHWLRQAPGQGLEWMGMIDPSDSYTKYNQKFKARVTMTRDTSTSTTYMELSSLRSEDTAVYYCARSGVAFPYWGQGTLVTVSS
VL: DIQMTQSPSSLSASVGDRVTITCKASQDVGRNVAWYQQKPGKAPKLLIYSASHRYSGVPSRFSGSGSGTDFTLTISSLQPEDFATYYCQQYNSYPYTFGQGTKVEIK
notes: humanized; also called hu2H8_HC2 + hu2H8_LC1
B4: 2H8.12 (antibody, human IgG1, V domains shown)
VH: EVQLQQSGAELVRPGTSVKLSCKASGYTFNNYWMHWVKQRPGQGLEWIGMIDPSDDDIKNNQKFKGKATLTVDTSSSTAYMQLISLTSEDSAVYYCARSGVALPYWGQGTLVTVSA
VL: DIVMTQSQKFMSTSVGDRVSVTCKASQNVGTNVAWYQQKPGQSPKALIYSASHRYSGVPDRFTGSGSGTDFTLTISNVQSEDLAEYFCQQYNSYMYTFGGGTKLEIK
notes: human IgG1/kappa; also called 2H8_HCvar6 + 2H8_LCvar2
B5: 2H8.09 (antibody, human IgG1, V domains shown)
VH: EVQLQQSGAELVRPGTSVKLSCKASGYTFTSYWIHWVKQRPGQGLEWIGMIDPSDSYTKYNQKFKDKATLTVDTSSSTTYMHLSSLTSEDSAVYYCARSGVAFPYWGQRTLVTVSA
VL: DIVMTQSQKFMSTSVGDRVSVTCKASQNVGTNVAWYQQKPGQSPKALIYSASHRYSGVPDRFTGSGSGTDFTLTISNVQSEDLAEYFCQQYNSYMYTFGGGTKLEIK
notes: human IgG1/kappa; also called 2H8_HCvar3 + 2H8_LCvar2
B6: 2H8.27 (antibody, human IgG1, V domains shown)
VH: EVQLQQSGAELVRPGTSVKLSCKASGYTFTSYWIHWVKQRPGQGLEWIGMIDPSDSYTKYNQKFKDKATLTVDTSSSTTYMHLSSLTSEDSAVYYCARSGVAFPYWGQRTLVTVSA
VL: DIVMTQSQKFMSTSVGDRVSVTCKASQNVGTNVAWYQQKSGQSPKALIYSASHRYSGVPDRFTGSGSGTDFTLTISNVQSEDLAEYFCQQYNSYPYTFGGGTKLEIK
notes: human IgG1/kappa; also called 2H8_HCvar3 + 2H8_LCvar5
B7: 2H8.15 (antibody, human IgG1, V domains shown)
VH: EVQLQQSGAELVRPGTSVKLSCKASGYTFTSYWIHWVKQRPGQGLEWIGMIDPSDSYTKYNQKFKDKATLTVDTSSSTTYMHLSSLTSEDSAVYYCARSGVAFPYWGQRTLVTVSA
VL: DIQMTQSQKFMSTSIGDRVSVTCKASQNVGTNVAWYQQKPGQSPKSLIYSASHWYSGVPDRFTGSGSGTDFTLTISNVQSEDLAEYFCQQYNSYPYTFGGGTKLEIK
notes: human IgG1/kappa; also called 2H8_HCvar3 + 2H8_LCvar3
B8: 2H8.34 (antibody, human IgG1, V domains shown)
VH: EIQLQQSGTELVRPGTSVKLSCKASGYTFTNYWMHWVKQRPGQGLEWIGMIDPSAAYTNYNQNFKGKATLTVDTSSGTAYMQLSSLTSEDSAVYYCARSGVAFPYWGQGTTVTVSS
VL: DIQMTQSQKFMSKSVGDRVSVTCKASQNVGSNVAWYQQKSGQSPKSLIYSASHRYSGVPDRFTGSGSGTDFTLTISNVQSEDLADYFCQQYNSYPYTFGGGTRLEIK
notes: human IgG1/kappa; also called 2H8_HCvar4 + 2H8_LCvar6
B9: 2H8.16 (antibody, human IgG1, V domains shown)
VH: EIQLQQSGTELVRPGTSVKLSCKASGYTFTNYWMHWVKQRPGQGLEWIGMIDPSAAYTNYNQNFKGKATLTVDTSSGTAYMQLSSLTSEDSAVYYCARSGVAFPYWGQGTTVTVSS
VL: DIQMTQSQKFMSTSIGDRVSVTCKASQNVGTNVAWYQQKPGQSPKSLIYSASHWYSGVPDRFTGSGSGTDFTLTISNVQSEDLAEYFCQQYNSYPYTFGGGTKLEIK
notes: human IgG1/kappa; also called 2H8_HCvar4 + 2H8_LCvar3
B10: 2H8.21 (antibody, human IgG1, V domains shown)
VH: EVQLQQSGAELVRPGTSVKLSCKASGYTFTSYWIHWVKQRPGQGLEWIGMIDPSDSYTKYNQKFKDKATLTVDTSSSTTYMHLSSLTSEDSAVYYCARSGVAFPYWGQRTLVTVSA
VL: DIVMTQSQKFMSTSVGDRVSITCKASQNVGTNVAWYQQKPGQSPKALIYSASYRYSGVPDRFTGSGSGTDFTLTISNVQSEDLAEYFCQQYNSYPYTFGGGTKLEIK
notes: human IgG1/kappa; also called 2H8_HCvar3 + 2H8_LCvar4
B11: 2H8.40 (antibody, human IgG1, V domains shown)
VH: EIQLQQSGTELVRPGTSVKLSCKASGYTFTNYWMHWVKQRPGQGLEWIGMIDPSAAYTNYNQNFKGKATLTVDTSSGTAYMQLSSLTSEDSAVYYCARSGVAFPYWGQGTTVTVSS
VL: DILMTQSQKFMSTSVGDRVSVTCKASQNVGRNVAWYQQISGQSPKPLIYSASHRYSGVPDRFTGSGSGTDFTLTISNVQSEDLVEFFCQQYNSYPYTFGGGTKLEIK
notes: human IgG1/kappa; also called 2H8_HCvar4 + 2H8_LCvar7
B12: 2H8.36 (antibody, human IgG1, V domains shown)
VH: EVQLQQSGAELVRPGTSVKLSCKASGYTFNNYWMHWVKQRPGQGLEWIGMIDPSDDDIKNNQKFKGKATLTVDTSSSTAYMQLISLTSEDSAVYYCARSGVALPYWGQGTLVTVSA
VL: DIQMTQSQKFMSKSVGDRVSVTCKASQNVGSNVAWYQQKSGQSPKSLIYSASHRYSGVPDRFTGSGSGTDFTLTISNVQSEDLADYFCQQYNSYPYTFGGGTRLEIK
notes: human IgG1/kappa; also called 2H8_HCvar6 + 2H8_LCvar6
B13: 2H8.24 (antibody, human IgG1, V domains shown)
VH: EVQLQQSGAELVRPGTSVKLSCKASGYTFNNYWMHWVKQRPGQGLEWIGMIDPSDDDIKNNQKFKGKATLTVDTSSSTAYMQLISLTSEDSAVYYCARSGVALPYWGQGTLVTVSA
VL: DIVMTQSQKFMSTSVGDRVSITCKASQNVGTNVAWYQQKPGQSPKALIYSASYRYSGVPDRFTGSGSGTDFTLTISNVQSEDLAEYFCQQYNSYPYTFGGGTKLEIK
notes: human IgG1/kappa; also called 2H8_HCvar6 + 2H8_LCvar4
B14: 2H8.18 (antibody, human IgG1, V domains shown)
VH: EVQLQQSGAELVRPGTSVKLSCKASGYTFNNYWMHWVKQRPGQGLEWIGMIDPSDDDIKNNQKFKGKATLTVDTSSSTAYMQLISLTSEDSAVYYCARSGVALPYWGQGTLVTVSA
VL: DIQMTQSQKFMSTSIGDRVSVTCKASQNVGTNVAWYQQKPGQSPKSLIYSASHWYSGVPDRFTGSGSGTDFTLTISNVQSEDLAEYFCQQYNSYPYTFGGGTKLEIK
notes: human IgG1/kappa; also called 2H8_HCvar6 + 2H8_LCvar3

T1 sequence (P56817 22-457): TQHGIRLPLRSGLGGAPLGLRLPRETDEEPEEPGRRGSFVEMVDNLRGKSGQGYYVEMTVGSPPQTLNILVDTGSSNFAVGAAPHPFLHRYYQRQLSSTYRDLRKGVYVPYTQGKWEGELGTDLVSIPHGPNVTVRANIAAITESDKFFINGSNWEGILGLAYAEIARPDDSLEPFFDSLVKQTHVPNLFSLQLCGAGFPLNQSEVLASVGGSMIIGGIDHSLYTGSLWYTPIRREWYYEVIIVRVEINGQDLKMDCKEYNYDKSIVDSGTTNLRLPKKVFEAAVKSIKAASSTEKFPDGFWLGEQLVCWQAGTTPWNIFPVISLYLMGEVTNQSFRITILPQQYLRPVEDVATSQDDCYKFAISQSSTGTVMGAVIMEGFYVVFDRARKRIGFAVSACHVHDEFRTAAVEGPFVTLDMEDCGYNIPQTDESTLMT

One assay has as its target T1, recombinant BACE1 (BACE1 extracellular domain, R&D Systems Cat#931-AS) (UniProt P56817 22-457).
T1 construct: extracellular domain; also called BACE1 extracellular domain protein
The experiment in a line: SPR Biacore. (In general: SPR reads the build-up and loss of mass on a sensor chip optically.)
By Kd is commonly meant the equilibrium constant for the complex coming apart. For the molecule B1, the Kd is 135 nM.
On to B2, for which the Kd was determined as 172 nM.
Take B3: the Kd amounted to 185 nM.

The target of a further assay is T1, recombinant BACE1 (BACE1 extracellular …). Nature of the assay: SPR Biacore. This is another data set of the same source.
One may read the koff as a measure of how fast the partners let go of each other. As a reminder, the kon is the second-order rate constant of association. Regarding B4, the Kd worked out at 171 nM, the dissociation rate constant (koff) was 0.00166 s⁻¹ and the kon amounted to 9680 M⁻¹ s⁻¹.
In the same order, the values of B5 are 18.3 nM, 0.000228 s⁻¹ and 12500 M⁻¹ s⁻¹.
In the same order, the values of B6 are 17 nM, 0.00024 s⁻¹ and 14100 M⁻¹ s⁻¹.
The matching figures for B7: 22.8 nM, 0.000278 s⁻¹ and 12200 M⁻¹ s⁻¹.
Turning to B8, the dissociation constant (Kd) worked out at 25.5 nM, the off-rate constant (koff) is 0.000425 s⁻¹ and the kon was found to be 16700 M⁻¹ s⁻¹.
For B9, the Kd was 37.8 nM, the koff was 0.000631 s⁻¹ and the kon came to 16700 M⁻¹ s⁻¹.
In the same order, the values of B10 are 90.5 nM, 0.00104 s⁻¹ and 11400 M⁻¹ s⁻¹.
On to B11, for which the dissociation constant Kd is 19.1 nM, the off-rate constant (koff) worked out at 0.000456 s⁻¹ and the kon worked out at 23900 M⁻¹ s⁻¹.
As for B12, the Kd came out at 23.5 nM, the koff was 0.000273 s⁻¹ and the kon came out at 11600 M⁻¹ s⁻¹.
With B13, the dissociation constant (Kd) amounted to 183 nM, the off-rate constant (koff) stood at 0.00243 s⁻¹ and the kon was determined as 13300 M⁻¹ s⁻¹.
The matching figures for B14: 32.4 nM, 0.00039 s⁻¹ and 12000 M⁻¹ s⁻¹.

Values taken from patent US20210070881A1 (DENALI THERAPEUTICS, published 2021).
